Measured values published in publication PMC11148119.

Molecular target: T1, Full-length rat TRPV2 with a C-terminal 1D4 tag, reconstituted into MSP2N2 nanodiscs (rat), Q9WUD2
T1 chain: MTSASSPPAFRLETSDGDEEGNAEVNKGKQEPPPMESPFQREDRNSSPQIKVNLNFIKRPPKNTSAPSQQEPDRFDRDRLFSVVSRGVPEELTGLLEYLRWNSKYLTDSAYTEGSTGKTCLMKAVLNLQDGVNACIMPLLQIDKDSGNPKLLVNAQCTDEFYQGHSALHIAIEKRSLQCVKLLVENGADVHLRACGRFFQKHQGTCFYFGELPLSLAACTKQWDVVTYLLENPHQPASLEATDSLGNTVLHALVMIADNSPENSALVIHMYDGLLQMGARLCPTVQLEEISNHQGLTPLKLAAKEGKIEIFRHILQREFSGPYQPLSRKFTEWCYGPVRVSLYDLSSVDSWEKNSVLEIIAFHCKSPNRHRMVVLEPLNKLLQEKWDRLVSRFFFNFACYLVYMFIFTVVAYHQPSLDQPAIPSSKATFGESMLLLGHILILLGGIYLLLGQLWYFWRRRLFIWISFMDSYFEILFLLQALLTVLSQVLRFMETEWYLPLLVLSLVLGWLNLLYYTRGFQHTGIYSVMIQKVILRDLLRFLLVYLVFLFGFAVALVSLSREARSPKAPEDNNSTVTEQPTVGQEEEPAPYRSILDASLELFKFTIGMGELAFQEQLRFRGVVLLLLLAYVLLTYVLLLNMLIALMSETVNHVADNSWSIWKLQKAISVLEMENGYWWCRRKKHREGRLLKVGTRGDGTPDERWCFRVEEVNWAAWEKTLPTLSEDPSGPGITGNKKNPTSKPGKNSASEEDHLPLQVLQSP
Assay: cryo-EM structure; rTRPV2 in MSP2N2/soy polar lipid nanodiscs; apo dataset at pH 8 (states Apo1, Apo2, Apo3) and dataset with 30 mM sodium acetate at final pH 5.0 (TRPV2_HOAc); grids prepared at 4 °C; maps refined with C4 symmetry
Conditions: remark: other sources report otherwise

B1: Full-length rat TRPV2 with a C-terminal 1D4 tag, reconstituted into MSP2N2 nanodiscs, Q9WUD2 1-761 (natural protein)
chain: MTSASSPPAFRLETSDGDEEGNAEVNKGKQEPPPMESPFQREDRNSSPQIKVNLNFIKRPPKNTSAPSQQEPDRFDRDRLFSVVSRGVPEELTGLLEYLRWNSKYLTDSAYTEGSTGKTCLMKAVLNLQDGVNACIMPLLQIDKDSGNPKLLVNAQCTDEFYQGHSALHIAIEKRSLQCVKLLVENGADVHLRACGRFFQKHQGTCFYFGELPLSLAACTKQWDVVTYLLENPHQPASLEATDSLGNTVLHALVMIADNSPENSALVIHMYDGLLQMGARLCPTVQLEEISNHQGLTPLKLAAKEGKIEIFRHILQREFSGPYQPLSRKFTEWCYGPVRVSLYDLSSVDSWEKNSVLEIIAFHCKSPNRHRMVVLEPLNKLLQEKWDRLVSRFFFNFACYLVYMFIFTVVAYHQPSLDQPAIPSSKATFGESMLLLGHILILLGGIYLLLGQLWYFWRRRLFIWISFMDSYFEILFLLQALLTVLSQVLRFMETEWYLPLLVLSLVLGWLNLLYYTRGFQHTGIYSVMIQKVILRDLLRFLLVYLVFLFGFAVALVSLSREARSPKAPEDNNSTVTEQPTVGQEEEPAPYRSILDASLELFKFTIGMGELAFQEQLRFRGVVLLLLLAYVLLTYVLLLNMLIALMSETVNHVADNSWSIWKLQKAISVLEMENGYWWCRRKKHREGRLLKVGTRGDGTPDERWCFRVEEVNWAAWEKTLPTLSEDPSGPGITGNKKNPTSKPGKNSASEEDHLPLQVLQSP
stoichiometry N: 4
